The values below come from US20140143908A1.

For data set [1], the target named is Oryza sativa trehalose-6-phosphate phosphatase, wild type (OsT6PP-WT) (Oryza sativa) (UniProt Q75WV3). Kind of data set: cell-based or functional assay.
Data set [2] concerns the target T1, Oryza sativa trehalose-6-phosphate phosphatase, wild type (OsT6PP-WT).
T1 chain: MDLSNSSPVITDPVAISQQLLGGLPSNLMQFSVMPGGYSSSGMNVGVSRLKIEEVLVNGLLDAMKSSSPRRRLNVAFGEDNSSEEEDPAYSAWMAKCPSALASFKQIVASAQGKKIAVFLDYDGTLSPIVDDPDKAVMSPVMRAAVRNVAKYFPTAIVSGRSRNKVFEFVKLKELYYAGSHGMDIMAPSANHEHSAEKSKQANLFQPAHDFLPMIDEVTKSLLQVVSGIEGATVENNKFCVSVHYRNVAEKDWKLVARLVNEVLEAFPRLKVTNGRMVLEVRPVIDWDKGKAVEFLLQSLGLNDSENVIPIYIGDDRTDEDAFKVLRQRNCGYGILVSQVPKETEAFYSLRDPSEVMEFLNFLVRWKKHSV

Data set [3] concerns the target T2, N-terminal truncated OsT6PP-D56NT.
T2 chain: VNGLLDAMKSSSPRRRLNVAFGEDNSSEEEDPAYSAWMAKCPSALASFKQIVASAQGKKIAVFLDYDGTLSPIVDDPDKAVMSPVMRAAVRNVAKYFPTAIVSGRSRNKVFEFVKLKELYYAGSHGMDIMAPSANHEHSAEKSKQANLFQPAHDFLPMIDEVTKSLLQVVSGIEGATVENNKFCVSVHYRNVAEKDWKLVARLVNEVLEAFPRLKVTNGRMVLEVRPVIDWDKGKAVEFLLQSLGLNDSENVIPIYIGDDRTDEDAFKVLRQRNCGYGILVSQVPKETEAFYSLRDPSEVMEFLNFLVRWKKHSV

B1: Oryza sativa trehalose-6-phosphate phosphatase single modification H244D (OsT6PP-H244D) (protein)
chain: MDLSNSSPVITDPVAISQQLLGGLPSNLMQFSVMPGGYSSSGMNVGVSRLKIEEVLVNGLLDAMKSSSPRRRLNVAFGEDNSSEEEDPAYSAWMAKCPSALASFKQIVASAQGKKIAVFLDYDGTLSPIVDDPDKAVMSPVMRAAVRNVAKYFPTAIVSGRSRNKVFEFVKLKELYYAGSHGMDIMAPSANHEHSAEKSKQANLFQPAHDFLPMIDEVTKSLLQVVSGIEGATVENNKFCVSVDYRNVAEKDWKLVARLVNEVLEAFPRLKVTNGRMVLEVRPVIDWDKGKAVEFLLQSLGLNDSENVIPIYIGDDRTDEDAFKVLRQRNCGYGILVSQVPKETEAFYSLRDPSEVMEFLNFLVRWKKHSV
B1: in data set [1], the Trehalose formed (µM), 20 min, mixture of OsT6PP-WT (1 µg/ml) and OsT6PP-H244D (10 µg/ml); WT alone 25.3, H244D alone 1.1 turned out to be 89.5 µM; the Trehalose formed (µM), 40 min, mixture of OsT6PP-WT (1 µg/ml) and OsT6PP-H244D (10 µg/ml); WT alone 33.6, H244D alone 4.6 was found to be 155 µM; the Trehalose formed (µM), 60 min, mixture of OsT6PP-WT (1 µg/ml) and OsT6PP-H244D (10 µg/ml); WT alone 36.8, H244D alone 5.9 was found to be 220 µM. In data set [2], this molecule yielded a T6PP activity, trehalose formed (µM), 20 min, OsT6PP-WT (1 µg/ml) with 0.5 µg/mL OsT6PP-H244D; WT alone 28.7 of 34.9 µM; a T6PP activity, trehalose formed (µM), 20 min, OsT6PP-WT (1 µg/ml) with 1 µg/mL OsT6PP-H244D; WT alone 28.7 of 40.1 µM; a T6PP activity, trehalose formed (µM), 20 min, OsT6PP-WT (1 µg/ml) with 2 µg/mL OsT6PP-H244D; WT alone 28.7 of 52.3 µM; a T6PP activity, trehalose formed (µM), 20 min, OsT6PP-WT (1 µg/ml) with 5 µg/mL OsT6PP-H244D; WT alone 28.7 of 71.7 µM. Besides, in data set [2], the T6PP activity, trehalose formed (µM), 20 min, OsT6PP-WT (1 µg/ml) with 10 µg/mL OsT6PP-H244D; WT alone 28.7, H244D alone 2.2 was found to be 77.7 µM; the T6PP activity, trehalose formed (µM), 20 min, OsT6PP-WT (1 µg/ml) with 20 µg/mL OsT6PP-H244D; WT alone 28.7, H244D alone 6.2 was found to be 101 µM; the “fold increase of T6PP activity” value is recorded as “An approximately 3-fold increased T6PP activity was observed when OsT6PP-WT was assayed in presence of OsT6PP-H244D”; the “trehalose 6-phosphate phosphatase activity (in vitro)” value is “Increased trehalose 6-phosphate phosphatase activity (in vitro) of OsT6PP-WT is observed in the presence of its catalytically inefficient variants, including OsT6PP-H244D, OsT6PP-H244S and OsT6PP-S242E”. Moreover, the “fold increase of T6PP activity” value in data set [3] is on record as “a 1.7 fold increase in T6PP activity was observed when N-terminal truncated OsT6PP-D56NT was mixed with OsT6PP-H244D”.

B2: OsT6PP-H244S (protein)
chain: MDLSNSSPVITDPVAISQQLLGGLPSNLMQFSVMPGGYSSSGMNVGVSRLKIEEVLVNGLLDAMKSSSPRRRLNVAFGEDNSSEEEDPAYSAWMAKCPSALASFKQIVASAQGKKIAVFLDYDGTLSPIVDDPDKAVMSPVMRAAVRNVAKYFPTAIVSGRSRNKVFEFVKLKELYYAGSHGMDIMAPSANHEHSAEKSKQANLFQPAHDFLPMIDEVTKSLLQVVSGIEGATVENNKFCVSVSYRNVAEKDWKLVARLVNEVLEAFPRLKVTNGRMVLEVRPVIDWDKGKAVEFLLQSLGLNDSENVIPIYIGDDRTDEDAFKVLRQRNCGYGILVSQVPKETEAFYSLRDPSEVMEFLNFLVRWKKHSV
As to B2, the “trehalose 6-phosphate phosphatase activity (in vitro)” value in data set [2] is “Increased trehalose 6-phosphate phosphatase activity (in vitro) of OsT6PP-WT is observed in the presence of its catalytically inefficient variants, including OsT6PP-H244D, OsT6PP-H244S and OsT6PP-S242E”.

B3: OsT6PP-S242E (protein)
chain: MDLSNSSPVITDPVAISQQLLGGLPSNLMQFSVMPGGYSSSGMNVGVSRLKIEEVLVNGLLDAMKSSSPRRRLNVAFGEDNSSEEEDPAYSAWMAKCPSALASFKQIVASAQGKKIAVFLDYDGTLSPIVDDPDKAVMSPVMRAAVRNVAKYFPTAIVSGRSRNKVFEFVKLKELYYAGSHGMDIMAPSANHEHSAEKSKQANLFQPAHDFLPMIDEVTKSLLQVVSGIEGATVENNKFCVEVHYRNVAEKDWKLVARLVNEVLEAFPRLKVTNGRMVLEVRPVIDWDKGKAVEFLLQSLGLNDSENVIPIYIGDDRTDEDAFKVLRQRNCGYGILVSQVPKETEAFYSLRDPSEVMEFLNFLVRWKKHSV
As for B3, the “trehalose 6-phosphate phosphatase activity (in vitro)” value in data set [2] was “Increased trehalose 6-phosphate phosphatase activity (in vitro) of OsT6PP-WT is observed in the presence of its catalytically inefficient variants, including OsT6PP-H244D, OsT6PP-H244S and OsT6PP-S242E”.
